From publication PMC3341331 (PLoS Neglected Tropical Diseases, 2012) come the findings set out here.

The target in the test is recombinant E protein domain III of DENV-2, flag and hexahistidine tagged (Dengue virus type 2, strain 16681 …, UniProt P29990). The test can be described thus: SPR. The settings on record: both partners purified.

As usually defined, the Kd is the free concentration of one partner at which half of the binding sites on the other are occupied at equilibrium, for simple one-to-one binding.

B1: humanized DB32-6 monoclonal antibody (antibody, V domains shown)
VH: EVQLQQSGAELVKPGASVNLSCTASGFNIKDTYIHWVKQRPEQGLEWIGRIDPENGNAKYDPNFQAKATIAADTSSNTAYLQLSSLTSEDTAVYYCVRTGSFWYFDVWGQGTLVTVSS
VL: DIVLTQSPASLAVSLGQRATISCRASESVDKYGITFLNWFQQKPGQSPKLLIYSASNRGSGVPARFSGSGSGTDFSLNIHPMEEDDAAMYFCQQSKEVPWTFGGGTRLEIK
Take B1: the dissociation constant (Kd) is 0.18 nM.
